Laboratory results as given in FireProtDB.

Details: Bombyx mori, whole UniProt chain shown; for Tm / unfolding enthalpy (calorimetric) / unfolding enthalpy (van 't Hoff): Thermal, DSC
[1] = pH 3.5, sodium acetate buffer 50 mM
[2] = pH 4, sodium acetate buffer 50 mM
[3] = pH 4.5, sodium acetate buffer 50 mM
[4] = pH 5, sodium acetate buffer 50 mM
[5] = pH 8, 25 °C, GdnHCl, CD, Tris-HCl 50 mM

B1: Lysozyme wild type, P48816 (protein)
chain: MQKLIIFALVVLCVGSEAKTFTRCGLVHELRKHGFEENLMRNWVCLVEHESSRDTSKTNTNRNGSKDYGLFQINDRYWCSKGASPGKDCNVKCSDLLTDDITKAAKCAKKIYKRHRFDAWYGWKNHCQGSLPDISSC
- Tm (pH 3, glycine-HCl 50 mM): 45.2 °C
- unfolding enthalpy (calorimetric) (pH 3, glycine-HCl 50 mM): 77.6 kcal/mol
- unfolding enthalpy (van 't Hoff) (pH 3, glycine-HCl 50 mM): 80.9 kcal/mol
- Tm (pH 3.25, glycine-HCl 50 mM): 51 °C
- unfolding enthalpy (calorimetric) (pH 3.25, glycine-HCl 50 mM): 81.5 kcal/mol
- unfolding enthalpy (van 't Hoff) (pH 3.25, glycine-HCl 50 mM): 86.7 kcal/mol
- Tm [1]: 56 °C
- unfolding enthalpy (calorimetric) [1]: 88.5 kcal/mol
- unfolding enthalpy (van 't Hoff) [1]: 91.4 kcal/mol
- Tm [2]: 59.3 °C
- unfolding enthalpy (calorimetric) [2]: 91.9 kcal/mol
- unfolding enthalpy (van 't Hoff) [2]: 92.4 kcal/mol
- Tm [3]: 62.8 °C
- unfolding enthalpy (calorimetric) [3]: 94.1 kcal/mol
- unfolding enthalpy (van 't Hoff) [3]: 93.8 kcal/mol
- Tm [4]: 65.3 °C
- unfolding enthalpy (calorimetric) [4]: 99.7 kcal/mol
- unfolding enthalpy (van 't Hoff) [4]: 95.1 kcal/mol
- denaturant m value [5]: 3.4 kcal/mol/M
- denaturant midpoint (higher = more stable) [5]: 2.39 M
- unfolding free energy [5]: 8.1 kcal/mol
